Laboratory results as given in the supplement of paper PMC10567573.
± gives the standard deviation.

Test: protein stability index of a GFP-peptide fusion (GPS, HEK-293T) (PSI 1-6); higher = more stable
[1] = treatment: DMSO, c terminus: a fixed tail appended
[2] = treatment: MLN4924 1 uM, 8 h, c terminus: a fixed tail appended
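Also: 24-mer peptide tiles fused after GFP, lentivirally expressed, FACS-sorted into six equal bins by GFP/DsRed ratio, decoded by Illumina sequencing, PSI is the read-weighted mean bin number.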

Sequence	protein stability index [1]	protein stability index [2]	protein stability index (treatment: DMSO, c terminus: native)	protein stability index (treatment: MLN4924 1 uM, 8 h, c terminus: native)
INVYGNTALHIACYNGQDAVVNEL [ANKRD44]	2.06 ± 0.16	2.23 ± 0.16	–	–
ASGVGFILGPVVGGYLTELEDGFY [MFSD9]	2.05 ± 0.62	2.17 ± 0.23	–	–
ATSRTDREIKVTLVFEHVDQDLRT [CDK4]	2.2 ± 0.3	2.26 ± 0.41	–	–
IEERKQGLEQFINKVAGHPLAQNE [SNX3]	4.54 ± 0.13	4.31 ± 0.47	–	–
STPSDNIVRRFLNICENTEGAIAV [CDC14A]	3.66 ± 0.39	3.66 ± 0.14	–	–
SPSFQLKAAALPPFPLGASAQNGL [PLAGL1]	3.41 ± 0.32	3.52 ± 0.4	–	–
VSWFGSPTTSFLSISKLSPFSEFF [PWWP2B]	2.32 ± 0.62	2.35 ± 0.41	–	–
GAGHFEVVKLLVSHGANVNHTTVT [FEM1B]	2.23 ± 0.51	2.26 ± 0.2	–	–
PVRTTNKISKQFVAPADVRRLLSY [ZSWIM9]	2.44 ± 0.17	2.84 ± 0.13	–	–
WGDCSRTCGGGVQFSSRDCTRPVP [ADAMTS4]	2.9 ± 0.95	2.94 ± 0.26	–	–
QGWMNLLNMAKKSVDIVSSHWDLN [PLD5]	2.9 ± 0.45	3.46 ± 0.69	–	–
QQLYRHGKAYRFLFGFSAVSIMYL [JAGN1]	2.82 ± 0.2	3.28 ± 0.93	–	–
SRVAHIERTRKPYNNDIDYYAKRN [GALNT9]	3.77 ± 0.37	3.91 ± 0.33	–	–
SYNACGVLSHIMFDGPEAWGVCEP [ZER1]	2.13 ± 0.45	2.44 ± 0.41	–	–
KGKLMVCYETLPRGQCLLYNWEEE [SPAG8]	2.55 ± 0.32	2.7 ± 0.34	–	–
GGMSHLHTFRATFQEPLYPALRLW [TRIM14]	2.21 ± 0.22	2.13 ± 0.091	–	–
LIIFDKQSSQRMRQNLKLLVEETS [CEP70]	2.1 ± 0.25	2.04 ± 0.35	–	–
MLPTVITDIKDESCCMTEEIFGPV [ALDH8A1]	3.83 ± 0.2	3.81 ± 0.13	–	–
NEVRRGSPVLLGWVEQAYADKCVC [TIAF1]	2.64 ± 0.087	2.88 ± 0.27	–	–
PWKKCCFSGDGEYIVAGSARQHAL [RBBP5]	2.14 ± 0.27	2.36 ± 0.22	–	–
EEIKFYELGEEAMEKFREDEGFIK [KCNA1]	4.71 ± 0.36	4.84 ± 0.14	–	–
VKWMVVFAIGVCTGLVGLFVDFFV [CLCN6]	2.16 ± 0.31	2.42 ± 0.46	–	–

Sequence	protein stability index [1]	protein stability index [2]	protein stability index (treatment: DMSO, c terminus: native)	protein stability index (treatment: MLN4924 1 uM, 8 h, c terminus: native)
GTLVQLLGSDDINVVTCAAGILSN [CTNNB1]	2.32 ± 0.52	2.28 ± 0.12	–	–
PKFKKWCDDYFFIAHRGERRGIGG [CPOX]	2.54 ± 0.14	2.56 ± 0.26	–	–
IVYATEKKQTKVEFPEARIFEETL [KCTD13]	3 ± 0.11	2.85 ± 0.35	–	–
SLLVTELGSSRTPETVRMVLSNME [IMPA1]	3.15 ± 0.39	3.4 ± 0.23	–	–
TITTAAATSVTVPGAGVPSGSGGT [ZBTB22]	4.9 ± 0.19	4.85 ± 0.26	–	–
DTMRQINKKGFWSYGPVILVVLVV [TOR1AIP2]	2.49 ± 0.48	2.42 ± 0.37	–	–
QIENLNIQVEDIRIRAILSTYRKR [LOXL2]	2.67 ± 0.28	2.85 ± 0.37	–	–
ASKGCQLGKTEQGFENMDFFTLDL [TRIM63]	3.22 ± 0.19	3.22 ± 0.31	–	–
HRKAVHLRTRGRTRGWVQTLARMS [C6orf223]	2.57 ± 0.34	2.49 ± 0.17	–	–
LLHLDLKPANILLDAHYHVKISDF [RIPK4]	2.45 ± 0.32	2.36 ± 0.48	–	–
DLAYQLQVAKTKQQIEEQRVQVQV [FLOT1]	3.4 ± 0.19	3.73 ± 0.22	–	–
WIDIKQFVWYTPPTFMIAVFLPIV [STEAP1]	2.67 ± 0.36	3.39 ± 0.61	–	–
GKLKWNLAAVTPHDFIEHILRKLP [CCND2]	2.61 ± 0.38	2.16 ± 0.18	–	–
SHHLAVYNSPQFKKTMSTFHNLVS [FBXO39]	2.25 ± 0.28	2.31 ± 0.1	–	–
ELEKSGHGQAGQRQDPRPHGPQLP [ZBED2]	5.01 ± 0.25	5.28 ± 0.055	–	–
HVDSIKFCGATIAGLSLLSPSVMR [ALKBH7]	2.2 ± 0.81	2.19 ± 0.39	–	–
AQRLRPQDEPRQGCQPEDRRRRII [KCNG1]	4.92 ± 0.23	4.9 ± 0.1	–	–
KHHNLEGLRKRIATLFFHYIKTPL [IQUB]	3.05 ± 0.27	2.66 ± 0.59	–	–
METFDPTELPELLKLYYRRLFPYS [PRIM1]	2.43 ± 0.51	2.38 ± 0.35	–	–
MALLRKINQVLLFLLIVTLCVILY [GLT8D2]	2.12 ± 0.27	2.11 ± 0.18	–	–
PQGISPVSQHWATWALYNLVSVYP [ZER1]	3 ± 0.57	2.88 ± 0.32	–	–
INRTFFFDVHPPLGKMLIGLAGYL [POMT2]	3.07 ± 0.57	2.6 ± 0.59	–	–

Sequence	protein stability index [1]	protein stability index [2]	protein stability index (treatment: DMSO, c terminus: native)	protein stability index (treatment: MLN4924 1 uM, 8 h, c terminus: native)
NNPFAKGFRGSDDMELHRMSRMQS [TBX5]	4.15 ± 0.33	4.06 ± 0.22	–	–
SICMRMEILGCPLPDPNNYYHRRN [CPXM2]	2.68 ± 0.27	2.46 ± 0.24	–	–
SNSSQDSLHKGAKRKGIKSSIGRL [PPFIA4]	4.17 ± 0.22	4.22 ± 0.16	–	–
MAALNSQTAVQFQQYAAQQYPGNY [ACBD3]	3.09 ± 0.38	3.16 ± 0.1	–	–
MGIVNLNIHMNFTHICRSHNSINQ [SLC2A12]	2.73 ± 0.52	2.9 ± 0.46	–	–
GSRVLHVVQTLYPFSSVTEEELNF [NCK2]	2.31 ± 0.31	2.31 ± 0.22	–	–
PQQTWASPAEVVDLTLDEDSRRKY [C18orf25]	5.1 ± 0.3	5.13 ± 0.14	–	–
SDPCGQLRPTLLLTSLHHFMHSRN [PNLIPRP1]	2.3 ± 0.35	2.6 ± 0.24	–	–
DLPEVESLPRDRVLGFLIENFKGL [VPS39]	3.27 ± 0.59	3.19 ± 0.34	–	–
KYSVYIYVYFHTKLTSQNSKRVS [R3HDM1]	–	–	2.55 ± 0.71	2.24 ± 0.15
FPKKLAFAYLEDLHSEFDEQHGKK [SEC22B]	2.89 ± 0.28	3.26 ± 0.38	–	–
MRHEELLTKTFQGPAVVCGTPTSH [LYSMD4]	3.82 ± 0.19	3.82 ± 0.13	–	–
QAQKDPKKDRPLARRKSELPQDPH [PPP2R5C]	5.12 ± 0.17	5.34 ± 0.17	–	–
CRKAKEIRKERKRLKLMQQNPAGE [ATE1]	4 ± 0.25	4.37 ± 0.2	–	–
QLYCEKVQGLMKEYLLSFPAGKTP [VPS39]	2.27 ± 0.16	2.41 ± 0.16	–	–
NQAGFTLHSAIYAARPDVKCVVHI [ADD1]	3.1 ± 0.42	3.15 ± 0.62	–	–
QALGTHRPVNKLAELQCEVAALRE [RASAL3]	3.81 ± 0.38	3.75 ± 0.41	–	–
AKEEGGEEVAKAVLEQEETAAASR [EPB41L3]	5.47 ± 0.37	5.79 ± 0.095	–	–
APKVNAVDTLNVKDIAPEKQLLNS [DLC1]	4.88 ± 0.2	4.82 ± 0.35	–	–
VKKNSAKSMGLKKKAFVWARNIGF [ACSBG2]	2.03 ± 0.12	2.24 ± 0.22	–	–
NAIPGRTDIELEIYGMEGIPEKDM [ZNF207]	4.23 ± 0.35	4.37 ± 0.29	–	–
